The text below walks through data of US20070202552A1 (Genentech, published 2007).

Assay [1] addresses T1, human HER-2 extracellular domain (HER-2 ECD) (human, UniProt P04626 23-646).
T1 construct: range 23-646; also called erbB2; HER2 protein
Briefly: competitive Fab-phage ELISA. On the technique in general: An ELISA detects its analyte on a solid surface through an enzyme-linked reagent.

Another assay concerns the target human IGF-1 (human) (UniProt P05019). Put plainly: specificity phage ELISA.
Assay [2] concerns the target T1, human HER-2 extracellular domain (HER-2 …). Briefly: competitive Fab-phage ELISA. This is another data set of the same source.

Where two headings read alike, the source gives them in different places.

B1: B15 (Fab, V domains shown)
VH: EVQLVESGGGLVQPGGSLRLSCAASGFSISSSYIHWVRQAPGKGLEWVASIYPYSGYTSYADSVKGRFTISADTSKNTAYLQMNSLRAEDTAVYYCARWWSSALDYWGQGTLVTVSS
VL: DIQMTQSPSSLSASVGDRVTITCRASQDVNTAVAWYQQKPGKAPKLLIYSASSLYSGVPSRFSGSRSGTDFTLTISSLQPEDFATYYCQQSYYSPSTFGQGTKVEIK
As a reminder, the IC50 is the concentration at which inhibition is half-maximal. For B1, the IC50 in assay [1] was 1.75 nM.

B2: B25 (Fab, V domains shown)
VH: EVQLVESGGGLVQPGGSLRLSCAASGFSISYSSIHWVRQAPGKGLEWVASIYPYYGYTYYADSVKGRFTISADTSKNTAYLQMNSLRAEDTAVYYCARFSFSSSSFAMDYWGQGTLVTVSS
VL: DIQMTQSPSSLSASVGDRVTITCRASQDVNTAVAWYQQKPGKAPKLLIYSASSLYSGVPSRFSGSRSGTDFTLTISSLQPEDFATYYCQQYSYYPYTFGQGTKVEIK
In assay [1], B2 registered an IC50 of 70.4 nM.

B3: G58 (Fab, V domains shown)
VH: EVQLVESGGGLVQPGGSLRLSCAASGFYISYSSIHWVRQAPGKGLEWVASISPYSGYTYYADSVKGRFTISADTSKNTAYLQMNSLRAEDTAVYYCARSSYSYYYYSYALDYWGQGTLVTVSS
VL: DIQMTQSPSSLSASVGDRVTITCRASQDVNTAVAWYQQKPGKAPKLLIYSASSLYSGVPSRFSGSRSGTDFTLTISSLQPEDFATYYCQQSSSSPSTFGQGTKVEIK
Regarding B3, the ELISA signal at 450 nm with human IGF-1 (human) is 0.36. In assay [2], this molecule gave an IC50 of 15.1 nM.

B4: B22 (Fab, V domains shown)
VH: EVQLVESGGGLVQPGGSLRLSCAASGFSISSSYIHWVRQAPGKGLEWVASIYPYSGYTSYADSVKGRFTISADTSKNTAYLQMNSLRAEDTAVYYCARWWSSAMDYWGQGTLVTVSS
VL: DIQMTQSPSSLSASVGDRVTITCRASQDVNTAVAWYQQKPGKAPKLLIYSASSLYSGVPSRFSGSRSGTDFTLTISSLQPEDFATYYCQQSYYYPSTFGQGTKVEIK
As for B4, the IC50 in assay [1] amounted to 2.72 nM.

B5: B21 (Fab, V domains shown)
VH: EVQLVESGGGLVQPGGSLRLSCAASGFSIYSSYIHWVRQAPGKGLEWVASIYPYSGYTSYADSVKGRFTISADTSKNTAYLQMNSLRAEDTAVYYCARWSSSGFDYWGQGTLVTVSS
VL: DIQMTQSPSSLSASVGDRVTITCRASQDVNTAVAWYQQKPGKAPKLLIYSASSLYSGVPSRFSGSRSGTDFTLTISSLQPEDFATYYCQQYYYSPSTFGQGTKVEIK
In assay [1], B5 registered an IC50 of 1.64 nM.

B6: B26 (Fab, V domains shown)
VH: EVQLVESGGGLVQPGGSLRLSCAASGFSISYSSIHWVRQAPGKGLEWVASIYPYYGYTYYADSVKGRFTISADTSKNTAYLQMNSLRAEDTAVYYCARFSFSSSSFAIDYWGQGTLVTVSS
VL: DIQMTQSPSSLSASVGDRVTITCRASQDVNTAVAWYQQKPGKAPKLLIYSASSLYSGVPSRFSGSRSGTDFTLTISSLQPEDFATYYCQQYSSYPYTFGQGTKVEIK
B6 registered an IC50 in assay [1] above 100 nM.

B7: B17 (Fab, V domains shown)
VH: EVQLVESGGGLVQPGGSLRLSCAASGFYIYSSYIHWVRQAPGKGLEWVASIYPYSGYTSYADSVKGRFTISADTSKNTAYLQMNSLRAEDTAVYYCARWWSSGFDYWGQGTLVTVSS
VL: DIQMTQSPSSLSASVGDRVTITCRASQDVNTAVAWYQQKPGKAPKLLIYSASSLYSGVPSRFSGSRSGTDFTLTISSLQPEDFATYYCQQSYYYPSTFGQGTKVEIK
On to B7, for which the IC50 in assay [1] worked out at 5.76 nM. In other words, the single-digit nanomolar range.

B8: B18 (Fab, V domains shown)
VH: EVQLVESGGGLVQPGGSLRLSCAASGFSISSSYIHWVRQAPGKGLEWVASIYPYSGYTSYADSVKGRFTISADTSKNTAYLQMNSLRAEDTAVYYCARWWSSAFDYWGQGTLVTVSS
VL: DIQMTQSPSSLSASVGDRVTITCRASQDVNTAVAWYQQKPGKAPKLLIYSASSLYSGVPSRFSGSRSGTDFTLTISSLQPEDFATYYCQQYYYSPSTFGQGTKVEIK
The molecule B8 gave an IC50 in assay [1] of 0.93 nM.

B9: B20 (Fab, V domains shown)
VH: EVQLVESGGGLVQPGGSLRLSCAASGFSISSSYIHWVRQAPGKGLEWVASIYPYSGYTSYADSVKGRFTISADTSKNTAYLQMNSLRAEDTAVYYCARWWSSALDYWGQGTLVTVSS
VL: DIQMTQSPSSLSASVGDRVTITCRASQDVNTAVAWYQQKPGKAPKLLIYSASSLYSGVPSRFSGSRSGTDFTLTISSLQPEDFATYYCQQSYYSPSTFGQGTKVEIK
For B9, the IC50 in assay [1] came to 1.56 nM.

B10: G30 (Fab, V domains shown)
VH: EVQLVESGGGLVQPGGSLRLSCAASGFSIWWSWIHWVRQAPGKGLEWVASISPSSGWTSYADSVKGRFTISADTSKNTAYLQMNSLRAEDTAVYYCARWWSSALDYWGQGTLVTVSS
VL: DIQMTQSPSSLSASVGDRVTITCRASQDVNTAVAWYQQKPGKAPKLLIYSASSLYSGVPSRFSGSRSGTDFTLTISSLQPEDFATYYCQQSWWWPSTFGQGTKVEIK
B10: the ELISA signal at 450 nm in the assay with human IGF-1 (human) amounted to 0.29. In addition, the IC50 in assay [2] amounted to 1.26 nM.

B11: B23 (Fab, V domains shown)
VH: EVQLVESGGGLVQPGGSLRLSCAASGFYISYSYIHWVRQAPGKGLEWVASIYPYSGYTSYADSVKGRFTISADTSKNTAYLQMNSLRAEDTAVYYCARWWSSALDYWGQGTLVTVSS
VL: DIQMTQSPSSLSASVGDRVTITCRASQDVNTAVAWYQQKPGKAPKLLIYSASSLYSGVPSRFSGSRSGTDFTLTISSLQPEDFATYYCQQSYYSPSTFGQGTKVEIK
The molecule B11 came in with an IC50 in assay [1] of 1.46 nM.

B12: B16 (Fab, V domains shown)
VH: EVQLVESGGGLVQPGGSLRLSCAASGFSISYSYIHWVRQAPGKGLEWVASIYPYSGYTSYADSVKGRFTISADTSKNTAYLQMNSLRAEDTAVYYCARWWSSAFDYWGQGTLVTVSS
VL: DIQMTQSPSSLSASVGDRVTITCRASQDVNTAVAWYQQKPGKAPKLLIYSASSLYSGVPSRFSGSRSGTDFTLTISSLQPEDFATYYCQQYYYYPSTFGQGTKVEIK
Take B12: in assay [1], the IC50 came to 1.77 nM.

B13: G34 (Fab, V domains shown)
VH: EVQLVESGGGLVQPGGSLRLSCAASGFSIWWSWIHWVRQAPGKGLEWVASISPSSGWTSYADSVKGRFTISADTSKNTAYLQMNSLRAEDTAVYYCARWWSSAFDYWGQGTLVTVSS
VL: DIQMTQSPSSLSASVGDRVTITCRASQDVNTAVAWYQQKPGKAPKLLIYSASSLYSGVPSRFSGSRSGTDFTLTISSLQPEDFATYYCQQSWWWPSTFGQGTKVEIK
For B13, the ELISA signal at 450 nm with human IGF-1 (human) worked out at 0.35. Further, in assay [2], the IC50 came out at 1.06 nM.

B14: B24 (Fab, V domains shown)
VH: EVQLVESGGGLVQPGGSLRLSCAASGFSISYSYIHWVRQAPGKGLEWVASIYPYSGYTSYADSVKGRFTISADTSKNTAYLQMNSLRAEDTAVYYCARWWSSALDYWGQGTLVTVSS
VL: DIQMTQSPSSLSASVGDRVTITCRASQDVNTAVAWYQQKPGKAPKLLIYSASSLYSGVPSRFSGSRSGTDFTLTISSLQPEDFATYYCQQSYYSPSTFGQGTKVEIK
In the case of B14, the IC50 in assay [1] was found to be 2.03 nM. This lies in the single-digit nanomolar range.
